Results as given in article PMC7239452.

Target: ERp29 (ER protein of 29 kDa; mouse, Min-6 insulinoma cells) (mouse (endogenous in Min-6)) (UniProt P57759)
Assay: co-IP; Min-6 lysate, non-denaturing; 50 ug lysate protein, 2 ul primary antibody 1 h, Protein G agarose 2 h at room temperature; precipitated Proinsulin quantified by Mercodia rat/mouse Proinsulin ELISA; controls: no antibody, anti-V5

Proinsulin (mouse, Min-6 insulinoma cells) (natural protein)
fold precipitation of Proinsulin over the anti-V5 control: > 10 fold
